Data: PMC10068178

Molecular target: α-synuclein aggregates (small fibrils, oligomeric/protofibrillary species) formed in the aggregation reaction (UniProt P37840)

## human serum high-density lipoprotein (HDL) (complex)
  diagnostic α-syn SAA on PD CSF, increase of the time to reach the fluorescence threshold of 5000 a.u. (TTT) against neat samples, HDL at 2X (~ 24%) and 5X the CSF physiological concentration: 55%
